Results published in patent publication US20230407373A1 (priority 2020, published 2023).
Read-outs that look alike come from different tables or passages of the source.

Columns and labels:
gRNA of HCoV-OC43 = assay type: binding; conditions: for target (spectral count) / background (spectral count): type g_36_m, 36 hpi, Probe I; for target (spectral count): HCoV-OC43-infected HCT-8 cells; for background (spectral count): uninfected-probe control; for target (spectral count, OC43 Probe I RNP capture) / background (spectral count, no-probe control): type n_48_v: 48 hours post-infection; for target (spectral count, OC43 Probe I RNP capture): infected cells, unweighted spectral count; for background (spectral count, no-probe control): no-probe control on infected cells
HCoV-OC43 gRNA and sgRNA = assay type: binding; conditions: for target (unweighted spectral count, OC43 Probe II capture) / target (unweighted spectral count): tested against no-probe control; for target (unweighted spectral count, OC43 Probe II capture): FDR<10%; for target (unweighted spectral count): OC43 Probe II, 24 hpi (type n_24_v), infected cells; for target (unweighted spectral count, OC43 Probe II) / background (unweighted spectral count, no-probe control): type n_48_v, 48 hpi; for target (unweighted spectral count, OC43 Probe II): OC43 Probe II capture on infected cells; for background (unweighted spectral count, no-probe control): no-probe control on infected cells; for target (spectral count) / background (spectral count): type s_36_m, Probe II; for target (spectral count): HCoV-OC43-infected HCT-8 cells; for background (spectral count): uninfected-probe control

Molecule	target (spectral count) (gRNA of HCoV-OC43)	background (spectral count) (gRNA of HCoV-OC43)	target (spectral count, OC43 Probe I RNP capture) (gRNA of HCoV-OC43)	background (spectral count, no-probe control) (gRNA of HCoV-OC43)	target (unweighted spectral count, OC43 Probe II capture) (HCoV-OC43 gRNA and sgRNA; 36 hpi, type n_36_v)	target (unweighted spectral count) (HCoV-OC43 gRNA and sgRNA)	target (unweighted spectral count, OC43 Probe II) (HCoV-OC43 gRNA and sgRNA)	background (unweighted spectral count, no-probe control) (HCoV-OC43 gRNA and sgRNA)	target (spectral count) (HCoV-OC43 gRNA and sgRNA; 36 hpi)	background (spectral count) (HCoV-OC43 gRNA and sgRNA; 36 hpi)	target (unweighted spectral count, OC43 Probe II capture) (HCoV-OC43 gRNA and sgRNA; 24 hpi, type n_24_v)
DDX1: host protein, UniProt Q92499 (protein, UniProt Q92499 1-740, looked up) ATP-dependent RNA helicase …: MAAFSEMGVMPEIAQAVEEMDWLLPTDIQAESIPLILGGGDVLMAAETGSGKTGAFSIPVIQIVYETLKDQQEGKKGKTTIKTGASVLNKWQMNPYDRGSAFAIGSDGLCCQSREVKEWHGCRATKGLMKGKHYYEVSCHDQGLCRVGWSTMQASLDLGTDKFGFGFGGTGKKSHNKQFDNYGEEFTMHDTIGCYLDIDKGHVKFSKNGKDLGLAFEIPPHMKNQALFPACVLKNAELKFNFGEEEFKFPPKDGFVALSKAPDGYIVKSQHSGNAQVTQTKFLPNAPKALIVEPSRELAEQTLNNIKQFKKYIDNPKLRELLIIGGVAARDQLSVLENGVDIVVGTPGRLDDLVSTGKLNLSQVRFLVLDEADGLLSQGYSDFINRMHNQIPQVTSDGKRLQVIVCSATLHSFDVKKLSEKIMHFPTWVDLKGEDSVPDTVHHVVVPVNPKTDRLWERLGKSHIRTDDVHAKDNTRPGANSPEMWSEAIKILKGEYAVRAIKEHKMDQAIIFCRTKIDCDNLEQYFIQQGGGPDKKGHQFSCVCLHGDRKPHERKQNLERFKKGDVRFLICTDVAARGIDIHGVPYVINVTLPDEKQNYVHRIGRVGRAERMGLAISLVATEKEKVWYHVCSSRGKGCYNTRLKEDGGCTIWYNEMQLLSEIEEHLNCTISQVEPDIKVPVDEFDGKVTYGQKRAAGGGSYKGHVDILAPTVQELAALEKEAQTSFLHLGYLPNQLFRTF	12	1	12	1	9	7	11	1	9	1	
SNW1 (protein, UniProt Q13573 2-536, looked up) SNW domain-containing protein …: ALTSFLPAPTQLSQDQLEAEEKARSQRSRQTSLVSSRREPPPYGYRKGWIPRLLEDFGDGGAFPEIHVAQYPLDMGRKKKMSNALAIQVDSEGKIKYDAIARQGQSKDKVIYSKYTDLVPKEVMNADDPDLQRPDEEAIKEITEKTRVALEKSVSQKVAAAMPVRAADKLAPAQYIRYTPSQQGVAFNSGAKQRVIRMVEMQKDPMEPPRFKINKKIPRGPPSPPAPVMHSPSRKMTVKEQQEWKIPPCISNWKNAKGYTIPLDKRLAADGRGLQTVHINENFAKLAEALYIADRKAREAVEMRAQVERKMAQKEKEKHEEKLREMAQKARERRAGIKTHVEKEDGEARERDEIRHDRRKERQHDRNLSRAAPDKRSKLQRNENRDISEVIALGVPNPRTSNEVQYDQRLFNQSKGMDSGFAGGEDEIYNVYDQAWRGGKDMAQSIYRPSKNLDKDMYGDDLEARIKTNRFVPDKEFSGSDRRQRGREGPVQFEEDPFGLDKFLEEAKQHGGSKRPSDSSRPKEHEHEGKKRRKE			5	1							
UPF1: host protein, UniProt Q92900 (protein, UniProt Q92900 1-1129, looked up) Regulator of nonsense …: MSVEAYGPSSQTLTFLDTEEAELLGADTQGSEFEFTDFTLPSQTQTPPGGPGGPGGGGAGGPGGAGAGAAAGQLDAQVGPEGILQNGAVDDSVAKTSQLLAELNFEEDEEDTYYTKDLPIHACSYCGIHDPACVVYCNTSKKWFCNGRGNTSGSHIVNHLVRAKCKEVTLHKDGPLGETVLECYNCGCRNVFLLGFIPAKADSVVVLLCRQPCASQSSLKDINWDSSQWQPLIQDRCFLSWLVKIPSEQEQLRARQITAQQINKLEELWKENPSATLEDLEKPGVDEEPQHVLLRYEDAYQYQNIFGPLVKLEADYDKKLKESQTQDNITVRWDLGLNKKRIAYFTLPKTDSGNEDLVIIWLRDMRLMQGDEICLRYKGDLAPLWKGIGHVIKVPDNYGDEIAIELRSSVGAPVEVTHNFQVDFVWKSTSFDRMQSALKTFAVDETSVSGYIYHKLLGHEVEDVIIKCQLPKRFTAQGLPDLNHSQVYAVKTVLQRPLSLIQGPPGTGKTVTSATIVYHLARQGNGPVLVCAPSNIAVDQLTEKIHQTGLKVVRLCAKSREAIDSPVSFLALHNQIRNMDSMPELQKLQQLKDETGELSSADEKRYRALKRTAERELLMNADVICCTCVGAGDPRLAKMQFRSILIDESTQATEPECMVPVVLGAKQLILVGDHCQLGPVVMCKKAAKAGLSQSLFERLVVLGIRPIRLQVQYRMHPALSAFPSNIFYEGSLQNGVTAADRVKKGFDFQWPQPDKPMFFYVTQGQEEIASSGTSYLNRTEAANVEKITTKLLKAGAKPDQIGIITPYEGQRSYLVQYMQFSGSLHTKLYQEVEIASVDAFQGREKDFIILSCVRANEHQGIGFLNDPRRLNVALTRARYGVIIVGNPKALSKQPLWNHLLNYYKEQKVLVEGPLNNLRESLMQFSKPRKLVNTINPGARFMTTAMYDAREAIIPGSVYDRSSQGRPSSMYFQTHDQIGMISAGPSHVAAMNIPIPFNLVMPPMPPPGYFGQANGPAAGRGTPKGKTGRGGRQKNRFGLPGPSQTNLPNSQASQDVASQPFSQGALTQGYISMSQPSQMSQPGLSQPELSQDSYLGDEFKSQIDVALSQDSTYQGERAYQHGGVTGLSQY			13	1	16	8	16	1	16	1	
RBM15: host protein, UniProt Q96T37 (protein, UniProt Q96T37 1-977, looked up) RNA-binding protein 15: MRTAGRDPVPRRSPRWRRAVPLCETSAGRRVTQLRGDDLRRPATMKGKERSPVKAKRSRGGEDSTSRGERSKKLGGSGGSNGSSSGKTDSGGGSRRSLHLDKSSSRGGSREYDTGGGSSSSRLHSYSSPSTKNSSGGGESRSSSRGGGGESRSSGAASSAPGGGDGAEYKTLKISELGSQLSDEAVEDGLFHEFKRFGDVSVKISHLSGSGSGDERVAFVNFRRPEDARAAKHARGRLVLYDRPLKIEAVYVSRRRSRSPLDKDTYPPSASVVGASVGGHRHPPGGGGGQRSLSPGGAALGYRDYRLQQLALGRLPPPPPPPLPRDLERERDYPFYERVRPAYSLEPRVGAGAGAAPFREVDEISPEDDQRANRTLFLGNLDITVTESDLRRAFDRFGVITEVDIKRPSRGQTSTYGFLKFENLDMSHRAKLAMSGKIIIRNPIKIGYGKATPTTRLWVGGLGPWVPLAALAREFDRFGTIRTIDYRKGDSWAYIQYESLDAAHAAWTHMRGFPLGGPDRRLRVDFADTEHRYQQQYLQPLPLTHYELVTDAFGHRAPDPLRGARDRTPPLLYRDRDRDLYPDSDWVPPPPPVRERSTRTAATSVPAYEPLDSLDRRRDGWSLDRDRGDRDLPSSRDQPRKRRLPEESGGRHLDRSPESDRPRKRHCAPSPDRSPELSSSRDRYNSDNDRSSRLLLERPSPIRDRRGSLEKSQGDKRDRKNSASAERDRKHRTTAPTEGKSPLKKEDRSDGSAPSTSTASSKLKSPSQKQDGGTAPVASASPKLCLAWQGMLLLKNSNFPSNMHLLQGDLQVASSLLVEGSTGGKVAQLKITQRLRLDQPKLDEVTRRIKVAGPNGYAILLAVPGSSDSRSSSSSAASDTATSTQRPLRNLVSYLKQKQAAGVISLPVGGNKDKENTGVLHAFPPCEFSQQFLDSPAKALAKSEEDYLVMIIVRGFGFQIGVRYENKKRENLALTLL	9	1	14	1			11	1			5
HNRNPAO: host protein, UniProt Q13151 (protein, UniProt Q13151 1-305, looked up) Heterogeneous nuclear …: MENSQLCKLFIGGLNVQTSESGLRGHFEAFGTLTDCVVVVNPQTKRSRCFGFVTYSNVEEADAAMAASPHAVDGNTVELKRAVSREDSARPGAHAKVKKLFVGGLKGDVAEGDLIEHFSQFGTVEKAEIIADKQSGKKRGFGFVYFQNHDAADKAAVVKFHPIQGHRVEVKKAVPKEDIYSGGGGGGSRSSRGGRGGRGRGGGRDQNGLSKGGGGGYNSYGGYGGGGGGGYNAYGGGGGGSSYGGSDYGNGFGGFGSYSQHQSSYGPMKSGGGGGGGGSSWGGRSNSGPYRGGYGGGGGYGGSSF	15	2									
RIAS: host protein, UniProt P31483 (protein, UniProt P31483 1-386, looked up) Cytotoxic granule associated …: MEDEMPKTLYVGNLSRDVTEALILQLFSQIGPCKNCKMIMDTAGNDPYCFVEFHEHRHAAAALAAMNGRKIMGKEVKVNWATTPSSQKKDTSSSTVVSTQRSQDHFHVFVGDLSPEITTEDIKAAFAPFGRISDARVVKDMATGKSKGYGFVSFFNKWDAENAIQQMGGQWLGGRQIRTNWATRKPPAPKSTYESNTKQLSYDEVVNQSSPSNCTVYCGGVTSGLTEQLMRQTFSPFGQIMEIRVFPDKGYSFVRFNSHESAAHAIVSVNGTTIEGHVVKCYWGKETLDMINPVQQQNQIGYPQPYGQWGQWYGNAQQIGQYMPNGWQVPAYGMYGQAWNQQGFNQTQSSAPWMGPNYGVQPPQGQNGSMLPNQPSGYRVAGYETQ	10	1									
TECR: host protein, UniProt Q9NZ01 (protein, UniProt Q9NZ01 1-308, looked up) Very-long-chain enoyl-CoA …: MKHYEVEILDAKTREKLCFLDKVEPHATIAEIKNLFTKTHPQWYPARQSLRLDPKGKSLKDEDVLQKLPVGTTATLYFRDLGAQISWVTVFLTEYAGPLFIYLLFYFRVPFIYGHKYDFTSSRHTVVHLACICHSFHYIKRLLETLFVHRFSHGTMPLRNIFKNCTYYWGFAAWMAYYINHPLYTPPTYGAQQVKLALAIFVICQLGNFSIHMALRDLRPAGSKTRKIPYPTKNPFTWLFLLVSCPNYTYEVGSWIGFAIMTQCLPVALFSLVGFTQMTIWAKGKHRSYLKEFRDYPPLRMPIIPFLL	9	1									
